Results reported in the supplement of paper PMC10065799, “High-throughput profiling of sequence recognition by tyrosine kinases and SH2 domains using bacterial peptide display” (eLife, 2023).

How the values were obtained:
[1] = molecular target: Jak2 (UniProt O60674); experiment: phosphorylation enrichment, bacterial display (enrichment ratio); higher = better substrate or ligand; peptides without Tyr show the background
[2] = molecular target: FGFR3 (UniProt P22607); experiment: as above
[3] = tested on: c-Src; experiment: as above
[4] = tested on: AncSZ; experiment: as above
[5] = molecular target: EPHB1 (UniProt P54762); experiment: as above
[6] = molecular target: Fyn (UniProt P06241); experiment: as above
[7] = molecular target: EPHB2 (UniProt P29323); experiment: as above
[8] = tested on: Fer (mouse); experiment: as above
[9] = molecular target: MERTK (UniProt Q12866); experiment: as above
[10] = molecular target: FGFR1 (UniProt P11362); experiment: as above
[11] = molecular target: Hck (UniProt P08631); experiment: as above
[12] = molecular target: Fes (UniProt P07332); experiment: as above
[13] = tested on: c-Abl (mouse); experiment: as above
[14] = molecular target: Grb2 SH2 (UniProt P62993); experiment: SH2 binding enrichment of the phosphorylated peptide, bacterial display (enrichment ratio); higher = better substrate or ligand; peptides without Tyr show the background
[15] = molecular target: c-Src SH2; experiment: as above
[16] = molecular target: SHP2-C SH2; experiment: as above
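Wherever SH2 binding enrichment of the phosphorylated peptide, bacterial display is given: peptide library displayed on the E. coli surface as eCPX fusions, selected cells deep-sequenced, score is each peptide's frequency after selection divided by its frequency in the input.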
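Wherever phosphorylation enrichment, bacterial display is given: 11-residue human phosphosite peptides and single-mutation variants displayed on the E. coli surface, counted by deep sequencing, each peptide's frequency after selection divided by its frequency in the unselected input library; frequency after pTyr selection over input frequency; kinase dosed for 20-30% of maximal phosphorylation in three min.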

Jak2, sequence (O60674 whole entry, looked up): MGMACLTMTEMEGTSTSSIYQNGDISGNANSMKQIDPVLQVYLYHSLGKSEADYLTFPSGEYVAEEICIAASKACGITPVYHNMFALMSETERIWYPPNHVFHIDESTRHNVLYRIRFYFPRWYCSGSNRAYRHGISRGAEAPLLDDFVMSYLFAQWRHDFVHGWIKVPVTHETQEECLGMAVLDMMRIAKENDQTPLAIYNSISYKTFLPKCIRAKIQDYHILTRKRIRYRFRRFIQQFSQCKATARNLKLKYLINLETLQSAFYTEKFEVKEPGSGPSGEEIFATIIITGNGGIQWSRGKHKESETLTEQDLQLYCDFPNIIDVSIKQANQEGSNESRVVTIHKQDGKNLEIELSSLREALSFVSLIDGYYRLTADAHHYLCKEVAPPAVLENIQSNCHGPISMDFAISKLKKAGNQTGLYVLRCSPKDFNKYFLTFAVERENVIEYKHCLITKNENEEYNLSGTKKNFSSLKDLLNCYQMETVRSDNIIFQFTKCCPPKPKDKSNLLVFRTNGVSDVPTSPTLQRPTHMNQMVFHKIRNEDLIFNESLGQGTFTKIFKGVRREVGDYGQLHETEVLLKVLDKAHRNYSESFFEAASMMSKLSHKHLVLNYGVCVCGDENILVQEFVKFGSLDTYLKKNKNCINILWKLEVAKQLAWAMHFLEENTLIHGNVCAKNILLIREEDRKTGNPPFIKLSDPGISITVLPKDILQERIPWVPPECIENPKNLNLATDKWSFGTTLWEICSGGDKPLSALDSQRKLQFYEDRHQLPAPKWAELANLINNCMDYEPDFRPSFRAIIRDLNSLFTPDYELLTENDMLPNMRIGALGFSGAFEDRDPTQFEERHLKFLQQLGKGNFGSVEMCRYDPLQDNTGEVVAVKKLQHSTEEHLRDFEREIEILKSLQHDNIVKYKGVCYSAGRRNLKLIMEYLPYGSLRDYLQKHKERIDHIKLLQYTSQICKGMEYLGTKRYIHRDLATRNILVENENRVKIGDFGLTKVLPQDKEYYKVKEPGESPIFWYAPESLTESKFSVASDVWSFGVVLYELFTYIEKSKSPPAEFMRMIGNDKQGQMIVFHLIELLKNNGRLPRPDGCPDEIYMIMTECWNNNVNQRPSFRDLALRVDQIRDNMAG
Fyn, sequence (P06241 whole entry, looked up): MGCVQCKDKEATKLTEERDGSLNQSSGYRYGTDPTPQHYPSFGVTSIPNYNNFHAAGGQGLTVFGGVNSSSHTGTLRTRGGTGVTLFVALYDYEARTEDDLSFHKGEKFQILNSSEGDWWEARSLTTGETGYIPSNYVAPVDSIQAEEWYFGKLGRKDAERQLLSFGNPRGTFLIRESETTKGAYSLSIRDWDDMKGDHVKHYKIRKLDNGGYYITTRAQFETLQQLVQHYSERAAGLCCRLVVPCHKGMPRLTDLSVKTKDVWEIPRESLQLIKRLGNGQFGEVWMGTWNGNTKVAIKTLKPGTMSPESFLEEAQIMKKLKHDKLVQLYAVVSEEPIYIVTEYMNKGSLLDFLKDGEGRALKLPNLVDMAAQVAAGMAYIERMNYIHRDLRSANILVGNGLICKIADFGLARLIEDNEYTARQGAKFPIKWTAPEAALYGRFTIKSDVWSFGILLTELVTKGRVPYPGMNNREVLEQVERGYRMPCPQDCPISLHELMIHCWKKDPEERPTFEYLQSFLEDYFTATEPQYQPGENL
EPHB1, sequence (P54762 whole entry, looked up): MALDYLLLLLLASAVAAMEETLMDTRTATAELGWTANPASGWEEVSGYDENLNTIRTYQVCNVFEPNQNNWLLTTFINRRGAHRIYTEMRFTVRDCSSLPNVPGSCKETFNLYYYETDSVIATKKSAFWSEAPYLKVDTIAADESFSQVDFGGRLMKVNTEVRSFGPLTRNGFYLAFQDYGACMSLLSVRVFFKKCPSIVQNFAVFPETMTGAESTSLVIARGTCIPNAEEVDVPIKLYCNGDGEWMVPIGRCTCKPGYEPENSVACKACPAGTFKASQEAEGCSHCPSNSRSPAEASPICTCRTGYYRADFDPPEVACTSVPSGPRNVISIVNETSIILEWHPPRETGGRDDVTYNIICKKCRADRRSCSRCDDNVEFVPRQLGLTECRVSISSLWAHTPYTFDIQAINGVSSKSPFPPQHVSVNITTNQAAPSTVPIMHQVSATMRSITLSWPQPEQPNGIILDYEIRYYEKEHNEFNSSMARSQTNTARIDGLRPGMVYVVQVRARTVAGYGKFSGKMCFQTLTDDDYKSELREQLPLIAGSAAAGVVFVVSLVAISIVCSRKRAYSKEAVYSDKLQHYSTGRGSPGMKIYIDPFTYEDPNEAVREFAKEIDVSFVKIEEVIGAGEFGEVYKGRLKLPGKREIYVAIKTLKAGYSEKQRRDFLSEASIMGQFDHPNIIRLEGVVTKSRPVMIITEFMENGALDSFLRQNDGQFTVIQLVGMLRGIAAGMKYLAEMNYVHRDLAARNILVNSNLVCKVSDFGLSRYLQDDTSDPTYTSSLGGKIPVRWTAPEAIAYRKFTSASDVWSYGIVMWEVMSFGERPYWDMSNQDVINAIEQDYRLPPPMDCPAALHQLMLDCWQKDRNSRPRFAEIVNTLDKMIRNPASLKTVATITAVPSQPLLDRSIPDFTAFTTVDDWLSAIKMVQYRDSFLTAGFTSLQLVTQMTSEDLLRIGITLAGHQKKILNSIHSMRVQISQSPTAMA
Hck, sequence (P08631 whole entry, looked up): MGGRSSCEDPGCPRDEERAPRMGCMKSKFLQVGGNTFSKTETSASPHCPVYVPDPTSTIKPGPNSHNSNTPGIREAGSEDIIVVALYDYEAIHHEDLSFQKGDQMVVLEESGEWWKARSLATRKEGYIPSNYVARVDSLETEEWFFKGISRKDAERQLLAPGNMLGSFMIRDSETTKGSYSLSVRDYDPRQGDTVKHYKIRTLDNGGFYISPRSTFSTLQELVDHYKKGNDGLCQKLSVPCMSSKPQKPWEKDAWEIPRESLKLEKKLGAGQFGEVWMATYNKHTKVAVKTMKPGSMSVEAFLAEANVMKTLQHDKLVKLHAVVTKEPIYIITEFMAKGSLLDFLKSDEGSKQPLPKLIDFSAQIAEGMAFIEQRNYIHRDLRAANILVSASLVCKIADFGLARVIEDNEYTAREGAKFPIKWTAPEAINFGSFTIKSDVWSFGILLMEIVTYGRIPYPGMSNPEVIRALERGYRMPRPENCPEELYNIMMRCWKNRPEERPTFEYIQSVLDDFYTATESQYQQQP
Grb2 SH2, sequence (P62993 whole entry, looked up): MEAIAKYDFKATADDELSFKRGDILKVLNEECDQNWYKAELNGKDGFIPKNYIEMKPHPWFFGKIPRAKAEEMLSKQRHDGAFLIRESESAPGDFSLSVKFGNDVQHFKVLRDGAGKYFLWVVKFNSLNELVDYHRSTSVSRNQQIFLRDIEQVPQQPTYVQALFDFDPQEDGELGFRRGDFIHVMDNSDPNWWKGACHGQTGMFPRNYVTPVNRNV
EPHB2, sequence (P29323 whole entry, looked up): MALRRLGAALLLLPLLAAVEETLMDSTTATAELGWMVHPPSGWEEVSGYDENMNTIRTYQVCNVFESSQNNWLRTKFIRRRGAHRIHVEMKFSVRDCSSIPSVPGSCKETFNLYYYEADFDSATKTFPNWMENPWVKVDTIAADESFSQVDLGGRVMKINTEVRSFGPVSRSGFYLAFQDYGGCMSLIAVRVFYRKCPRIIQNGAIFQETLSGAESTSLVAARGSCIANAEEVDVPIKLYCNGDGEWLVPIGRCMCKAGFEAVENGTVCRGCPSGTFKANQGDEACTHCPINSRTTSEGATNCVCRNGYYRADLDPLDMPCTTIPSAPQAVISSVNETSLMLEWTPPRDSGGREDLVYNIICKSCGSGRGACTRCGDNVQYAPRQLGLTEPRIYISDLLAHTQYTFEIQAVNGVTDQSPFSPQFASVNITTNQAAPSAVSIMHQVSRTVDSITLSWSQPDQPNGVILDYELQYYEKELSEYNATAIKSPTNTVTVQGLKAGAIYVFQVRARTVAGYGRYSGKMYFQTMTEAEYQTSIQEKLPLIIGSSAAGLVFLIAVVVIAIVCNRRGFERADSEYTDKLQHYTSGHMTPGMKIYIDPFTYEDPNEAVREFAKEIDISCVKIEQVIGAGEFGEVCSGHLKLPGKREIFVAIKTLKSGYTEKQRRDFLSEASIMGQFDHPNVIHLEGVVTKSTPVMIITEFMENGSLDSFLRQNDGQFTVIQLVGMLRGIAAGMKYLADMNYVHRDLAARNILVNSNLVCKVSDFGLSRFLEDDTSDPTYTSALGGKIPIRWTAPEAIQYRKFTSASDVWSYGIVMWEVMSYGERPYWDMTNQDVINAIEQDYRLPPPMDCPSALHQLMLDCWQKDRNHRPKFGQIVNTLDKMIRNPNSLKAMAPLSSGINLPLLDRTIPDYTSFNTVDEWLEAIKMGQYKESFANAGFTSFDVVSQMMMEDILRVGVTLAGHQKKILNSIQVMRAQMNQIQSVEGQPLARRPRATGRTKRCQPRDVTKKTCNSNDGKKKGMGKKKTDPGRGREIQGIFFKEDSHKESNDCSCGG

Row | Sequence | phosphorylation enrichment [1] | phosphorylation enrichment [2] | phosphorylation enrichment [3] | phosphorylation enrichment [4] | phosphorylation enrichment [5] | phosphorylation enrichment [6] | phosphorylation enrichment [7] | phosphorylation enrichment [8] | phosphorylation enrichment [9] | phosphorylation enrichment [10] | phosphorylation enrichment [11] | phosphorylation enrichment [12] | phosphorylation enrichment [13] | SH2 binding enrichment [14] | SH2 binding enrichment [15] | SH2 binding enrichment [16]
1 | VHNLNYYKKTT [FGFR3_Y647_D646N] | 0.728 | 0.665 | 0.487 | 0.506 | 0.429 | 0.435 | 0.449 | 0.32 | 0.528 | 0.447 | 0.464 | 0.682 | 0.671 | 1.04 | 0.539 | 0.746
2 | MPPHICAITDT [MYH9_Y151_Y151C] | 0.981 | 0.685 | 0.529 | 0.809 | 0.628 | 0.51 | 0.53 | 0.631 | 0.473 | 0.578 | 0.538 | 1.1 | 1.34 | 1.1 | 0.657 | 0.706
3 | RSFPSYFTSHV [NEFL_Y442_YF] | 1.8 | 0.634 | 0.481 | 0.869 | 0.672 | 0.65 | 0.761 | 0.525 | 0.629 | 0.899 | 0.477 | 0.887 | 0.772 | 0.888 | 0.73 | 1.08
4 | FEELVYETVRV [FSHB_Y76_K72E] | 0.843 | 1.82 | 5.16 | 3.82 | 4.38 | 7.8 | 5.12 | 12.8 | 4.67 | 2.21 | 6.88 | 6.25 | 11.5 | 0.884 | 0.514 | 0.702
5 | ALVDTYCRHNY [HLA-DRB1_Y107_A103L] | 0.456 | 0.501 | 0.432 | 0.474 | 0.439 | 0.46 | 0.486 | 0.442 | 0.618 | 0.401 | 0.549 | 0.709 | 0.515 | 0.911 | 0.582 | 0.79
6 | MSSLPYMKMIF [SLC4A11_Y853] | 1.65 | 0.706 | 0.813 | 0.946 | 0.474 | 0.421 | 0.541 | 1.05 | 0.566 | 0.753 | 0.692 | 1.03 | 0.732 | 1.21 | 1.71 | 1.51
7 | VFDMLYQVANL [USP24_Y1087_L1089V] | 0.863 | 0.923 | 4.11 | 1.79 | 2.75 | 2.92 | 5.28 | 11.7 | 2.78 | 0.943 | 4.24 | 1.06 | 2.06 | 1.16 | 0.769 | 1
8 | QSQQAYQEAFE [YWHAZ_Y149] | 1.28 | 0.693 | 0.578 | 1.3 | 0.355 | 0.397 | 0.47 | 0.597 | 0.541 | 0.488 | 0.48 | 1.22 | 1.71 | 0.873 | 1.32 | 0.526
9 | APIEDYGGGGG [B4GALT6_Y382] | 0.794 | 0.697 | 0.449 | 0.872 | 0.649 | 0.566 | 0.599 | 0.505 | 0.461 | 0.523 | 0.509 | 0.965 | 0.661 | 0.702 | 0.501 | 0.627
10 | REGKIYEYNQV [ZNF665_Y162_H157R] | 0.494 | 0.898 | 1.19 | 0.799 | 0.716 | 1.41 | 0.929 | 15.9 | 3.19 | 0.707 | 1.12 | 0.788 | 1.07 | 0.84 | 1.56 | 0.611
11 | KSLSQYLEMDK [CAGE1_Y438_V435L] | 0.797 | 0.487 | 0.4 | 0.793 | 0.382 | 0.445 | 0.483 | 0.348 | 0.446 | 0.545 | 0.415 | 0.836 | 0.56 | 0.709 | 1.4 | 0.837
12 | PIPAAYNKFDQ [CDC73_Y290_R292K_YF] | 0.653 | 0.925 | 0.611 | 1.54 | 0.687 | 0.745 | 1.39 | 0.798 | 0.415 | 0.57 | 0.661 | 0.864 | 0.684 | 0.946 | 0.509 | 0.86
13 | EQFELHCEMGS [CBL_Y371_Y371H_YF] | 1.25 | 0.802 | 0.528 | 1.17 | 0.71 | 0.523 | 0.623 | 0.577 | 0.526 | 0.496 | 0.58 | 1.49 | 0.995 | 0.707 | 0.606 | 0.685
14 | AQAERYDDMAA [YWHAG_Y20_E15A] | 0.954 | 0.67 | 0.439 | 0.871 | 0.577 | 0.478 | 0.595 | 0.529 | 0.389 | 0.469 | 0.476 | 0.881 | 0.668 | 0.858 | 2.79 | 0.699
15 | HLTNQFMQRVA [PABPC4_Y382_Y382F] | 0.697 | 0.631 | 0.541 | 0.791 | 0.621 | 0.437 | 0.35 | 0.527 | 0.673 | 0.576 | 0.722 | 0.809 | 0.898 | 1.16 | 0.591 | 0.733
16 | SHLEDYPFNAE [AKR1B10_Y310] | 1.03 | 0.771 | 0.396 | 1.01 | 0.568 | 0.517 | 0.511 | 0.594 | 0.413 | 0.489 | 0.504 | 1.14 | 0.713 | 0.928 | 0.404 | 0.573
17 | SCTFTYLLGDR [ETHE1_Y38] | 0.921 | 0.575 | 0.515 | 1.11 | 0.491 | 0.491 | 0.56 | 0.426 | 0.409 | 0.446 | 0.404 | 1.2 | 0.604 | 0.83 | 0.588 | 0.729

Row | Sequence | phosphorylation enrichment [1] | phosphorylation enrichment [2] | phosphorylation enrichment [3] | phosphorylation enrichment [4] | phosphorylation enrichment [5] | phosphorylation enrichment [6] | phosphorylation enrichment [7] | phosphorylation enrichment [8] | phosphorylation enrichment [9] | phosphorylation enrichment [10] | phosphorylation enrichment [11] | phosphorylation enrichment [12] | phosphorylation enrichment [13] | SH2 binding enrichment [14] | SH2 binding enrichment [15] | SH2 binding enrichment [16]
18 | LLVVVYKFRCF [PSEN1_Y154_L153V_YF] | 0.707 | 0.676 | 0.455 | 0.949 | 0.446 | 0.359 | 0.45 | 0.471 | 0.463 | 0.446 | 0.462 | 1.3 | 1.19 | 1.96 | 1.41 | 1.64
19 | CTTIHYNSMCN [TP53_Y234_Y236S] | 0.603 | 0.627 | 0.396 | 0.849 | 0.514 | 0.464 | 0.645 | 0.467 | 0.42 | 0.486 | 0.561 | 0.905 | 0.544 | 1.01 | 2.42 | 1.06
20 | INASGYRIGPA [ACSM1_Y477] | 0.401 | 0.367 | 0.433 | 0.479 | 0.371 | 0.328 | 0.374 | 0.467 | 0.33 | 0.349 | 0.385 | 0.502 | 0.36 | 0.799 | 0.453 | 0.633
21 | RSGIYYKPESL [L2HGDH_Y103_H98R] | 2.29 | 3.3 | 2.6 | 1.17 | 2.37 | 2.43 | 3.34 | 0.699 | 17 | 5.07 | 4.86 | 0.915 | 45.6 | 0.935 | 0.854 | 0.745
22 | YEKFLYFLPAS [DYNC2H1_Y346_H341Y] | 2.7 | 0.91 | 0.938 | 1.5 | 0.764 | 0.868 | 0.644 | 0.581 | 2.16 | 0.57 | 0.827 | 1.31 | 0.89 | 1.05 | 2.21 | 1.19
23 | WPLKWYAPECI [ZAP70_Y506] | 1.03 | 0.806 | 0.425 | 1.25 | 0.886 | 0.565 | 0.766 | 0.598 | 0.433 | 0.573 | 0.405 | 1.39 | 0.666 | 0.83 | 0.501 | 0.817
24 | VQNIVYHTASI [CYP39A1_Y102_R103H] | 0.621 | 0.408 | 0.636 | 0.605 | 0.375 | 0.401 | 0.43 | 0.386 | 0.376 | 0.435 | 0.543 | 0.708 | 0.824 | 0.82 | 1.69 | 4.37
25 | GGDAVYTNGAI [RFX2_Y82] | 0.494 | 0.532 | 1.09 | 0.654 | 0.425 | 1.3 | 0.486 | 0.5 | 0.359 | 0.484 | 1.34 | 0.638 | 0.443 | 0.995 | 0.491 | 0.594
26 | HELFVYKSDEN [DOCK3_Y548_C550S_YF] | 2.04 | 1.13 | 0.616 | 1.87 | 0.706 | 0.734 | 0.84 | 0.927 | 0.505 | 0.94 | 0.66 | 2 | 1.11 | 0.973 | 0.604 | 0.662
27 | HKDNNYVSMWF [PAPOLG_Y432] | 1.01 | 2.75 | 0.666 | 1.36 | 6.89 | 0.77 | 4.55 | 2.8 | 1.5 | 3.98 | 0.636 | 1.39 | 0.654 | 1.02 | 0.557 | 0.817
28 | VKMLPYTEVTR [GDI1_Y93_L92P] | 0.573 | 0.49 | 0.4 | 0.555 | 0.437 | 0.368 | 0.431 | 0.282 | 0.494 | 0.416 | 0.45 | 0.717 | 0.492 | 0.988 | 2.9 | 0.863
29 | PECEWYKNGVK [TTN_Y2112] | 1.32 | 1.19 | 0.555 | 1.55 | 0.759 | 0.692 | 1.05 | 0.719 | 0.532 | 0.821 | 0.73 | 1.96 | 1.31 | 0.811 | 0.39 | 0.472
30 | VTSLKYSTSPY [BRIP1_Y916] | 0.6 | 0.467 | 0.542 | 0.751 | 0.52 | 0.523 | 0.498 | 0.451 | 0.493 | 0.487 | 0.516 | 0.655 | 0.537 | 0.754 | 0.43 | 0.42
31 | GHGRFYMKEAI [PGM1_Y66_D62H] | 0.662 | 0.59 | 0.36 | 0.684 | 0.342 | 0.407 | 0.418 | 0.405 | 0.305 | 0.384 | 0.404 | 0.754 | 0.536 | 1.32 | 1.1 | 1.21
32 | PPGRSYSPYDY [TNS1_Y793] | 1.07 | 0.855 | 3.42 | 1.44 | 1.12 | 2.82 | 1.07 | 1.11 | 0.653 | 0.863 | 1.65 | 1.38 | 0.664 | 0.502 | 3.08 | 1.52
33 | PPGRSYSPCDY [TNS1_Y793_Y796C] | 1.02 | 0.799 | 0.581 | 1.19 | 0.512 | 0.922 | 0.83 | 0.602 | 0.638 | 0.73 | 0.586 | 1.16 | 0.832 | 1 | 1.26 | 0.772
